T1: EsCas13d, nuclease-dead (Eubacterium siraeum, UniProt B0MS50, R295A;H300A;R849A;H854A)
T1 sequence: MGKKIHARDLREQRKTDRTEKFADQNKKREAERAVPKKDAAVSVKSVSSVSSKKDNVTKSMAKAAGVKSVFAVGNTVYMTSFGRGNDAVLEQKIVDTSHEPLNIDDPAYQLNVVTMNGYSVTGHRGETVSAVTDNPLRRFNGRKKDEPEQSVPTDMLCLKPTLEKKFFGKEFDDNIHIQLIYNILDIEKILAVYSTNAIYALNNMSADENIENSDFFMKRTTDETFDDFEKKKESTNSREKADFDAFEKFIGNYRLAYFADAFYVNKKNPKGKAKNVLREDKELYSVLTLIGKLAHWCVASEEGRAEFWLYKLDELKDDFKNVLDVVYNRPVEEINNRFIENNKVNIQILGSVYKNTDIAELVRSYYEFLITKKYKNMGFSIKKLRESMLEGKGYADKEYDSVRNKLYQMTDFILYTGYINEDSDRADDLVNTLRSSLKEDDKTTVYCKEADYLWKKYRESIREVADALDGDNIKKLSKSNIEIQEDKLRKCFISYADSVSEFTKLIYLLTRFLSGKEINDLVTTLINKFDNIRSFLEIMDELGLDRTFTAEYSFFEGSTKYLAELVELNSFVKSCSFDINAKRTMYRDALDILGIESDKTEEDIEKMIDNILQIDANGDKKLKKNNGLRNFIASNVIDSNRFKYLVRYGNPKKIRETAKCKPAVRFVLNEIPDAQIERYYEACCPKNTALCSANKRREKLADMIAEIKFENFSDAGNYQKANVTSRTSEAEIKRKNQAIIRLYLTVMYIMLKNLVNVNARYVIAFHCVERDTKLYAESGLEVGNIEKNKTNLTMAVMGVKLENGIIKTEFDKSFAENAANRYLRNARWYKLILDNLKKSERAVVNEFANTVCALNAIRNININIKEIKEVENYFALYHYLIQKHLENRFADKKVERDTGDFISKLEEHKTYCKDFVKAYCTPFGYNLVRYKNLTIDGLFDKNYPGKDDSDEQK


What follows are binders tested against T1, EsCas13d, nuclease-dead (assay: crRNA (strand 1, pre-loaded); Mg2+; 40 mM Tris-HCl pH 7.5, 150 mM NaCl, 6 mM MgCl2, 1 mM DTT, 0.1% Tween-20, 0.2 mg/ml BSA; 25 C; 10 min per concentration, then washed). Conditions: tags: His6-TwinStrep-SUMO cleaved; N-terminal SNAP kept (SNAP-Surface 488); label: 3' end held by stalled T7 RNA polymerase.

Row | Binder | Kd [nM]
1 | target 1 G12C,G15A (mixed) RNA 1: CACCCGUGCAAAAAUGCAGGGGUCUAAAACUGAGCGGAUAACCUCUCUAUGG RNA 2: GGGAAUGGAUCCACAUCUACGAAUUCGUACCAUAGAAAGCUUAUCCGCUCACCGAGAUCGGAAGAGCACACGU | 50 ± 16
2 | target 1 insA 3' of 12,insC 3' of 3 (mixed) RNA 1: CACCCGUGCAAAAAUGCAGGGGUCUAAAACUGAGCGGAUAACCUCUCUAUGG RNA 2: GGGAAUGGAUCCACAUCUACGAAUUCGUACCAUAGAGAGGAUUAUCCGCUCCACCGAGAUCGGAAGAGCACACGU | 26.6 ± 3
3 | target 2 MT 5'PFS AAC 3'PFS CUG (mixed) RNA 1: CACCCGUGCAAAAUUGCAGGGGUCUAAAACCUUCUCCAAAUUGUUUCAUCCU RNA 2: GGGAAUGGAUCCACAUCUACGAAUUCAACAGGAUGAAACAAUUUGGAGAAGCUGAGAUCGGAAGAGCACACGU | 7.3 ± 1.3
4 | target 2 MT 5'PFS GCG 3'PFS CCG (mixed) RNA 1: CACCCGUGCAAAAUUGCAGGGGUCUAAAACCUUCUCCAAAUUGUUUCAUCCU RNA 2: GGGAAUGGAUCCACAUCUACGAAUUCGCGAGGAUGAAACAAUUUGGAGAAGCCGAGAUCGGAAGAGCACACGU | 12.2 ± 1
5 | target 2 MT 5'PFS UCG 3'PFS CGC (mixed) RNA 1: CACCCGUGCAAAAUUGCAGGGGUCUAAAACCUUCUCCAAAUUGUUUCAUCCU RNA 2: GGGAAUGGAUCCACAUCUACGAAUUCUCGAGGAUGAAACAAUUUGGAGAAGCGCAGAUCGGAAGAGCACACGU | 30 ± 6
6 | target 2 MT 5'PFS UAC 3'PFS ACG (mixed) RNA 1: CACCCGUGCAAAAUUGCAGGGGUCUAAAACCUUCUCCAAAUUGUUUCAUCCU RNA 2: GGGAAUGGAUCCACAUCUACGAAUUCUACAGGAUGAAACAAUUUGGAGAAGACGAGAUCGGAAGAGCACACGU | 5.6 ± 1.3
7 | target 2 MT 5'PFS GUU 3'PFS CGC (mixed) RNA 1: CACCCGUGCAAAAUUGCAGGGGUCUAAAACCUUCUCCAAAUUGUUUCAUCCU RNA 2: GGGAAUGGAUCCACAUCUACGAAUUCGUUAGGAUGAAACAAUUUGGAGAAGCGCAGAUCGGAAGAGCACACGU | 11.4 ± 0.7
8 | target 2 MT 5'PFS GUU 3'PFS CGA (mixed) RNA 1: CACCCGUGCAAAAUUGCAGGGGUCUAAAACCUUCUCCAAAUUGUUUCAUCCU RNA 2: GGGAAUGGAUCCACAUCUACGAAUUCGUUAGGAUGAAACAAUUUGGAGAAGCGAAGAUCGGAAGAGCACACGU | 15.2 ± 1.5
9 | target 2 MT 5'PFS AAC 3'PFS AAU (mixed) RNA 1: CACCCGUGCAAAAUUGCAGGGGUCUAAAACCUUCUCCAAAUUGUUUCAUCCU RNA 2: GGGAAUGGAUCCACAUCUACGAAUUCAACAGGAUGAAACAAUUUGGAGAAGAAUAGAUCGGAAGAGCACACGU | 6.1 ± 1.5
10 | target 2 MT 5'PFS AAU 3'PFS AGU (mixed) RNA 1: CACCCGUGCAAAAUUGCAGGGGUCUAAAACCUUCUCCAAAUUGUUUCAUCCU RNA 2: GGGAAUGGAUCCACAUCUACGAAUUCAAUAGGAUGAAACAAUUUGGAGAAGAGUAGAUCGGAAGAGCACACGU | 4.9 ± 0.5
11 | target 2 MT 5'PFS AAA 3'PFS ACU (mixed) RNA 1: CACCCGUGCAAAAUUGCAGGGGUCUAAAACCUUCUCCAAAUUGUUUCAUCCU RNA 2: GGGAAUGGAUCCACAUCUACGAAUUCAAAAGGAUGAAACAAUUUGGAGAAGACUAGAUCGGAAGAGCACACGU | 9.5 ± 2.9
12 | target 2 MT 5'PFS UAC 3'PFS CAU (mixed) RNA 1: CACCCGUGCAAAAUUGCAGGGGUCUAAAACCUUCUCCAAAUUGUUUCAUCCU RNA 2: GGGAAUGGAUCCACAUCUACGAAUUCUACAGGAUGAAACAAUUUGGAGAAGCAUAGAUCGGAAGAGCACACGU | 10 ± 2.3
13 | target 2 MT 5'PFS UAC 3'PFS ACA (mixed) RNA 1: CACCCGUGCAAAAUUGCAGGGGUCUAAAACCUUCUCCAAAUUGUUUCAUCCU RNA 2: GGGAAUGGAUCCACAUCUACGAAUUCUACAGGAUGAAACAAUUUGGAGAAGACAAGAUCGGAAGAGCACACGU | 4.9 ± 1.2
14 | target 2 MT 5'PFS UCG 3'PFS CGG (mixed) RNA 1: CACCCGUGCAAAAUUGCAGGGGUCUAAAACCUUCUCCAAAUUGUUUCAUCCU RNA 2: GGGAAUGGAUCCACAUCUACGAAUUCUCGAGGAUGAAACAAUUUGGAGAAGCGGAGAUCGGAAGAGCACACGU | 55 ± 16
15 | target 2 MT 5'PFS AUU 3'PFS CCA (mixed) RNA 1: CACCCGUGCAAAAUUGCAGGGGUCUAAAACCUUCUCCAAAUUGUUUCAUCCU RNA 2: GGGAAUGGAUCCACAUCUACGAAUUCAUUAGGAUGAAACAAUUUGGAGAAGCCAAGAUCGGAAGAGCACACGU | 14.8 ± 2.7
16 | target 2 MT 5'PFS ACA 3'PFS UGU (mixed) RNA 1: CACCCGUGCAAAAUUGCAGGGGUCUAAAACCUUCUCCAAAUUGUUUCAUCCU RNA 2: GGGAAUGGAUCCACAUCUACGAAUUCACAAGGAUGAAACAAUUUGGAGAAGUGUAGAUCGGAAGAGCACACGU | 9.6 ± 2.5
17 | target 2 MT 5'PFS AAG 3'PFS UCG (mixed) RNA 1: CACCCGUGCAAAAUUGCAGGGGUCUAAAACCUUCUCCAAAUUGUUUCAUCCU RNA 2: GGGAAUGGAUCCACAUCUACGAAUUCAAGAGGAUGAAACAAUUUGGAGAAGUCGAGAUCGGAAGAGCACACGU | 4.4 ± 0.7
18 | target 2 MT 5'PFS GGC 3'PFS UAU (mixed) RNA 1: CACCCGUGCAAAAUUGCAGGGGUCUAAAACCUUCUCCAAAUUGUUUCAUCCU RNA 2: GGGAAUGGAUCCACAUCUACGAAUUCGGCAGGAUGAAACAAUUUGGAGAAGUAUAGAUCGGAAGAGCACACGU | 12.4 ± 1.5
19 | target 2 MT 5'PFS AAA 3'PFS ACG (mixed) RNA 1: CACCCGUGCAAAAUUGCAGGGGUCUAAAACCUUCUCCAAAUUGUUUCAUCCU RNA 2: GGGAAUGGAUCCACAUCUACGAAUUCAAAAGGAUGAAACAAUUUGGAGAAGACGAGAUCGGAAGAGCACACGU | 4.4 ± 0.5
20 | target 2 MT 5'PFS AAC 3'PFS CUC (mixed) RNA 1: CACCCGUGCAAAAUUGCAGGGGUCUAAAACCUUCUCCAAAUUGUUUCAUCCU RNA 2: GGGAAUGGAUCCACAUCUACGAAUUCAACAGGAUGAAACAAUUUGGAGAAGCUCAGAUCGGAAGAGCACACGU | 9 ± 3
21 | target 2 MT 5'PFS GUU 3'PFS CGG (mixed) RNA 1: CACCCGUGCAAAAUUGCAGGGGUCUAAAACCUUCUCCAAAUUGUUUCAUCCU RNA 2: GGGAAUGGAUCCACAUCUACGAAUUCGUUAGGAUGAAACAAUUUGGAGAAGCGGAGAUCGGAAGAGCACACGU | 17 ± 1.6
22 | target 2 MT 5'PFS UCA 3'PFS UCC (mixed) RNA 1: CACCCGUGCAAAAUUGCAGGGGUCUAAAACCUUCUCCAAAUUGUUUCAUCCU RNA 2: GGGAAUGGAUCCACAUCUACGAAUUCUCAAGGAUGAAACAAUUUGGAGAAGUCCAGAUCGGAAGAGCACACGU | 5.7 ± 0.8
23 | target 2 MT 5'PFS AUU 3'PFS CCG (mixed) RNA 1: CACCCGUGCAAAAUUGCAGGGGUCUAAAACCUUCUCCAAAUUGUUUCAUCCU RNA 2: GGGAAUGGAUCCACAUCUACGAAUUCAUUAGGAUGAAACAAUUUGGAGAAGCCGAGAUCGGAAGAGCACACGU | 9.8 ± 1.1
24 | target 2 MT 5'PFS AUC 3'PFS AUG (mixed) RNA 1: CACCCGUGCAAAAUUGCAGGGGUCUAAAACCUUCUCCAAAUUGUUUCAUCCU RNA 2: GGGAAUGGAUCCACAUCUACGAAUUCAUCAGGAUGAAACAAUUUGGAGAAGAUGAGAUCGGAAGAGCACACGU | ~70
25 | target 2 MT 5'PFS GUU 3'PFS CGU (mixed) RNA 1: CACCCGUGCAAAAUUGCAGGGGUCUAAAACCUUCUCCAAAUUGUUUCAUCCU RNA 2: GGGAAUGGAUCCACAUCUACGAAUUCGUUAGGAUGAAACAAUUUGGAGAAGCGUAGAUCGGAAGAGCACACGU | 12.9 ± 0.9
26 | target 2 MT 5'PFS UCG 3'PFS CGA (mixed) RNA 1: CACCCGUGCAAAAUUGCAGGGGUCUAAAACCUUCUCCAAAUUGUUUCAUCCU RNA 2: GGGAAUGGAUCCACAUCUACGAAUUCUCGAGGAUGAAACAAUUUGGAGAAGCGAAGAUCGGAAGAGCACACGU | 33 ± 15
27 | target 2 MT 5'PFS UAC 3'PFS ACC (mixed) RNA 1: CACCCGUGCAAAAUUGCAGGGGUCUAAAACCUUCUCCAAAUUGUUUCAUCCU RNA 2: GGGAAUGGAUCCACAUCUACGAAUUCUACAGGAUGAAACAAUUUGGAGAAGACCAGAUCGGAAGAGCACACGU | 9.8 ± 2.1
28 | target 2 MT 5'PFS AAC 3'PFS AAC (mixed) RNA 1: CACCCGUGCAAAAUUGCAGGGGUCUAAAACCUUCUCCAAAUUGUUUCAUCCU RNA 2: GGGAAUGGAUCCACAUCUACGAAUUCAACAGGAUGAAACAAUUUGGAGAAGAACAGAUCGGAAGAGCACACGU | 8.8 ± 3.5

Reference: PMC10786891, “Massively parallel profiling of RNA-targeting CRISPR-Cas13d”
